In article PMC10807135 (ACS chemical biology, 2023):
Numbering of substitutions follows the chain as printed. Names and notes keep the numbering of the source. Where two headings read alike, the source gives them in different places.

Tests used:
[1] = target: holo-AcpP (E. coli acyl carrier protein AcpP with phosphopantetheine) (Escherichia coli) (UniProt P0A6A8)
[2] = target: holo-AcpP (E. coli acyl carrier protein AcpP with phosphopantetheine) (Escherichia coli) (UniProt P0A6A8); remark: listed apart in the source
PltF Q438R D263K A230R = target: T1, PltF Q438R D263K A230R (Pseudomonas fluorescens, UniProt Q4KCY5 1-498, Q438R | D263K | A230R); test: NMR titration
T1 sequence: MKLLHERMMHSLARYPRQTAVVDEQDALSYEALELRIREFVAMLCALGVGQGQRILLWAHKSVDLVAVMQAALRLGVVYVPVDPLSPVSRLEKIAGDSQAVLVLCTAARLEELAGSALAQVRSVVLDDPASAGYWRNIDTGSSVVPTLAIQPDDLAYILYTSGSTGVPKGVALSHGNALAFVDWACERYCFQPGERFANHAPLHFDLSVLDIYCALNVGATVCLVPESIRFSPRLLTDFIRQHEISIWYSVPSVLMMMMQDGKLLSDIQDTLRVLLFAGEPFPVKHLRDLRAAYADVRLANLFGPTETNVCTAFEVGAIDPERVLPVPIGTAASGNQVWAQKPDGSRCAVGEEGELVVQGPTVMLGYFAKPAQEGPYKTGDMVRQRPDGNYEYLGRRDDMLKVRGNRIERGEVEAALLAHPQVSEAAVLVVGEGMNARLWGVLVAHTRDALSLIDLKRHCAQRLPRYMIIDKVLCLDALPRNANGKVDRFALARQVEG

B1: PltF Q438R (enzyme)
chain: T1 sequence with R230A, K263D
- turnover rate of AcpP prolylation (time course, HPLC) [1]: 0.264 AcpP h^-1

B2: PltF Q438R K472R D263N (enzyme)
chain: T1 sequence with R230A, K263N, K472R
- turnover rate of AcpP prolylation (time course, HPLC) [2]: 1.98 AcpP h^-1

B3: desulfo-AcpP (15N-labelled E. coli acyl carrier protein AcpP loaded with a desulfo-PPant mimic) (natural protein, Escherichia coli)
chain: STIEERVKKIIGEQLGVKQEEVTNNASFVEDLGADSLDTVELVMALEEEFDTEIPDEEAEKITTVQAAIDYINGHQA
modifications: desulfo-phosphopantetheine (desulfo-PPant mimic) loaded onto apo-AcpP; uniform 15N labelling
- binding result (PltF Q438R D263K A230R): binds
